Experiment [1] has as its target T1, Recombinant FGFR4 (G&P Biosciences) (human, UniProt P22455 22-369).
T1 construct: Bought protein; the SPR method says only 'Recombinant; also called rFGFR4; extracellular FGFR4
T1 sequence: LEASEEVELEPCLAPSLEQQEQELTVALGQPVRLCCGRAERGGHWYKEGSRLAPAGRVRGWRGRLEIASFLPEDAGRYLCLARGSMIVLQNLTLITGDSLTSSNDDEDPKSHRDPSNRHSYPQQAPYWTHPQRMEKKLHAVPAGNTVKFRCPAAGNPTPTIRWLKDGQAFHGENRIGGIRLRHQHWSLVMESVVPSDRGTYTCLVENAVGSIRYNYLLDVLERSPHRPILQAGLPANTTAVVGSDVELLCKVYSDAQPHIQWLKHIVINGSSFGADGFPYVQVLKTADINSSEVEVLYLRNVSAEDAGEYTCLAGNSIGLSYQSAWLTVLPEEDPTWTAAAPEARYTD
Put plainly: SPR (BIAcore T200), single cycle kinetics, FGFR4 amine-immobilised, nanobody as analyte, heterogeneous ligand model, component 2 (koff2). How it is done: FIG. 3: Affinity determination of nanobodies to recombinant protein via surface plasmon resonance spectroscopy. Single cycle kinetics analysis was performed on immobilized FGFR4 through covalent amine binding on the dextran based sensor chip. The analytes A8, B1, B5, F8 and mCh were injected in 5 different concentrations followed by a dissociation phase. A final dissociation step was added after the last injection step to determine Koff rates for the KD calculations. The black curves represent the measured data and red curves show the fit analysis (heterogeneous ligand model) performed with the BIAevaluation software.
(§1) Single cycle kinetics analysis was performed with the BIAcore® T200 instrument (GE Healthcare) on CMD200M sensor chips (XanTec bioanalytics GmbH) activated with a mixture of 300 mM NHS (N-hydroxysuccinimide) and 50 mM EDC (N-ethyl-N′-(dimethylaminopropyl) carbodiimide). Recombinant FGFR1, FGFR2, FGFR3 and FGFR4 (G&P Biosciences) were immobilized on the activated biosensors (800 to 12′000 RU; 1 RU=1 pg/mm²) followed by a blocking step with 1M ethanolamine. One flow channel per chip was used as a reference to provide background corrections. The nanobodies were injected at 5 different concentrations followed by a dissociation phase. Koff-rates were determined from a final dissociation step after the last injection. The measurements with FGFR4 were performed for each nanobody on freshly immobilized protein due to strong binding and incomplete dissociation from the surface. Immobilization flow rate was 5 μl/min and binding studies were performed at 30 μl/min. Binding parameters were determined with the heterogeneous ligand model fit of the BIAevaluation software. The black curves represent the measured data and red curves show the performed fit analysis.
To determine the binding affinity of the nanobodies to FGFR4, we performed surface plasmon resonance (SPR) spectroscopy with recombinant FGFR4. As already mentioned above, FGFR1 and FGFR2 are expressed on Rh4-FR4ko cells and flow cytometry analysis indicated no binding of the nanobodies to the cells. […]

The target in experiment [2] is T2, Recombinant FGFR1 (G&P Biosciences) (UniProt P11362 22-376, limits assumed).
T2 construct: Immobilised on the SPR chip
T2 sequence (looked up): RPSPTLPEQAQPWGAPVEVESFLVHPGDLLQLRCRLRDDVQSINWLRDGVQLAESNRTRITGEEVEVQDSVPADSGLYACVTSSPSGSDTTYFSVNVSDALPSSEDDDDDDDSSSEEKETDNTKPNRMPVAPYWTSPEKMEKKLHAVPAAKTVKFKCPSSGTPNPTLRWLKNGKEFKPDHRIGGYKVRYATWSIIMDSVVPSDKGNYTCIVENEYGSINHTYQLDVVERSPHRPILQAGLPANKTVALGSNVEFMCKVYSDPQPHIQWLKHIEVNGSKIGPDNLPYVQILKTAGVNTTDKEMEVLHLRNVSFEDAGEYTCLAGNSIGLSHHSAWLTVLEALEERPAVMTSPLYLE
Briefly: SPR, FGFR1 immobilised, nanobody as analyte at five concentrations. How it is done:
as §1
To determine the binding affinity of the nanobodies to FGFR4, we performed surface plasmon resonance (SPR) spectroscopy with recombinant FGFR4. As already mentioned above, FGFR1 and FGFR2 are expressed on Rh4-FR4ko cells and flow cytometry analysis indicated no binding of the nanobodies to the cells. To further confirm FGFR4-specificity, we included also affinity measurements with recombinant FGFR1, FGFR2 and FGFR3. Nanobodies A8, B1, B5, F8, and mCh were injected in five different concentrations on a FGFR coated chip. Except for the negative control mCh, calculated KD values for FGFR4 binding were in the nano- and picomolar range (FIG. 3; Table 2). Affinity parameters could not be fitted with a 1:1 binding model and best fits were obtained with the heterogeneous ligand model of the BIAevaluation software resulting in two KD values for each candidate.
On the technique in general: In SPR one partner is held on a chip, and binding of the other changes the refractive index at the surface.

For experiment [3], the target named is T3, FGFR1 expressed on Rh4-FR4ko cells (UniProt P11362 22-822, limits assumed).
T3 construct: whole, on cells; also called FGFR1 on Rh4 cells
Briefly: flow cytometry on Rh4-FR4ko cells, which express FGFR1 and FGFR2. As for the experimental part:
The cells were incubated for 1 h with nanobodies at 10 μM (A8, B1, B5, F8, mCh) followed by stimulation of FGFR4 with 50 nM FGF19 for 10 min. Control cells (C) were either not stimulated or stimulated with FGF19 in absence of the nanobodies. The cell lysates were analysed by western blot with anti phospho ERK1/2 antibody. Total Erk1/2 levels are shown as loading control.
Binding validation of selected phages, recombinant nanobodies and decorated liposomes was performed on Rh4-FR4 wt and Rh4-FR4ko cells. Specificity of selected phage clones binding to FGFR4 was determined by flow cytometry in 96-well plates (Becton Dickinson). Cell surface staining of Rh4-FR4 wt or Rh4-FR4ko cells was performed on ice in PBS supplemented with 1% FBS. 80 μL phages+20 μL PBS/1% milk were incubated on 1×10⁵ cells for 1 h on ice. […] Samples were analyzed after two washes by flow cytometry on a MACSQuant® cytometer (Miltenyi) and results were analyzed with FlowJo™ software (BD Biosciences, France). Phages displaying anti-mCherry nanobodies were used as negative control²⁴ and as positive control we used an anti-FGFR4 antibody (BT53, kindly provided by J. Khan lab, NCI, Bethesda, MD). For binding test of recombinant nanobodies, cells were detached with Accutase® (Stemcell Technologies) and washed with PBS. All following steps were performed on ice: 4×10⁵ cells were incubated with nanobody concentrations of 30 μg/ml for 1 h, washed once with PBS and incubated for an additional 30 min with anti His-tag FITC labeled antibody (LS-C57341, LSBioscience, diluted 1:10). The cells were washed once more with PBS and analyzed. Targeting liposomes were added at 0.5 mM final lipid concentration to cells in 96-well plates and incubated for 2 h at 37° C. and 5% CO₂. The cells were washed twice with PBS and detached with Accutase®.
Validation of the binding of recombinant nanobodies to cell-surface expressed FGFR4 was performed with Rh4-FR4 wt and Rh4-FR4ko cells by flow cytometry.

The term koff denotes a measure of how fast the partners let go of each other.

B1: A8 nanobody (anti-FGFR4 sdAb, NaLi-H1 library) (VHH)
VHH: EVQLQASGGGFVQPGGSLRLSCAASGRTYSRDTMGWFRQAPGKEREFVSAISSRHSHTTYYADSVKGRFTISRDNSKNTVYLQMNSLRAEDTATYYCAEWDVFDMHYALPPMWYWGQGTQVTVSS
notes: also called A8 sdAb; not shown: C-terminal Myc/6xHis-tag and an additional cysteine
On to B1, for which, in experiment [1], the koff is 0.00245 s⁻¹. Further, the binding result in experiment [2] is “no binding”; in experiment [3] it was “no binding (tested: 30 µg/ml)”.

B2: B1 nanobody (anti-FGFR4 sdAb, NaLi-H1 library) (VHH)
VHH: EVQLQASGGGFVQPGGSLRLSCAASGYTSRSSAMGWFRQAPGKEREFVSAISDLTGYPYYYADSVKGRFTISRDNSKNTVYLQMNSLRAEDTATYYCAAYQDDKWTYGSQHGKYWGQGTQVTVSS
notes: also called B1 sdAb; not shown: C-terminal Myc/6xHis-tag and an additional cysteine
In the case of B2, in experiment [1], the off-rate constant (koff) stood at 0.000992 s⁻¹. For the same molecule, the binding result is on record as “no binding” in experiment [2] and “no binding (tested: 30 µg/ml)” in experiment [3].

B3: F8 nanobody (anti-FGFR4 sdAb, Gimli library) (VHH)
VHH: EVQLVESGGGLVQPGGSLRLSCAASGTGYALDDMGWVRQAPGKGLEWVSAISDDESMADYYADSVKGRFTISRDNSKNTVYLQMNSLRAEDTAVYYCASYKEYKYQSGHHYFAYRGQGTLVTVSS
notes: Recombinant nanobody of about 17 kDa; also called F8 sdAb; not shown: C-terminal Myc/6xHis-tag and an additional cysteine
As to B3, in experiment [1], the koff was 0.00557 s⁻¹. Further, the binding result in experiment [2] is “no binding”; in experiment [3], “no binding (tested: 30 µg/ml)”.

B4: B5 nanobody (anti-FGFR4 sdAb, NaLi-H1 library) (VHH)
VHH: EVQLQASGGGFVQPGGSLRLSCAASGRTSWLTTMGWFRQAPGKEREFVSAISSFSSKQGYYADSVKGRFTISRDNSKNTVYLQMNSLRAEDTATYYCAYASYPRHQGNGRWKDFVEYWGQGTQVTVSS
notes: Recombinant nanobody of about 17 kDa; also called B5 sdAb; not shown: C-terminal Myc/6xHis-tag and an additional cysteine
For B4, the binding result in experiment [2] was “no binding”; in experiment [3] it was “no binding (tested: 30 µg/ml)”.

The values are drawn from US20260191907A1 (INSTITUT CURIE, published 2026).
